Laboratory results published in patent publication US20090291088A1, “THERAPEUTIC COMBINATIONS OF ANTI-IGF-1R ANTIBODIES AND OTHER COMPOUNDS” (Biogen Idec MA Inc., priority 2008, published 2009).
Like-named read-outs stand apart in the source and are kept apart here.

How the values were obtained:
MCF-7 = experiment: Ki67 inhibition in MCF-7 cells; type: cell-based, human; settings: breast cancer cell
[1] = biological target: T1, IGF-1R expressed on MCF-7 cells (Homo sapiens, UniProt P08069); experiment: Flow cytometry binding to wild type IGF-1R on MCF-7 tumor cells
T1 construct: wild type IGF-1R expressed on MCF-7 tumor cells; endogenous in cells; host or cells: MCF-7
Experimental: The ability of Fabs to bind to the wild type IGF-1R was determined by flowcytometry using MCF-7 tumor cell line.
MCF-7 cells (Human Breast Adenocarcinoma from NCI) were split 24 hours prior to the setup of the assay to obtain 70% confluent monolayer. Routinely, MCF-7 cell line was maintained within 20 passages. Cells were lifted with cell dissociation buffer (Gibco catalog #13151-014), counted, washed and adjusted to 1×10^6 cells/ml and one ml of cells were then added to each tube (12×75 mm tube Falcon catalog# 352054). Cells were pelleted and supernatant removed by centrifugation at 1200 rpm for 5 min and 100 μl of diluted antibodies were then added to the cell pellet. Purified Fabs were tested at a starting concentration of either 210 or 60 μg/ml with 1:3 dilutions in FACS buffer, down to 0.001 μg/ml. FACS buffer used throughout the assay was PBS (without Ca++/Mg++) containing 1% BSA (Sigma catalog# A-7906; Sigma-Aldrich Corp. (St. Louis, Mo., USA)) and 0.1% Sodium Azide (Sigma catalog #S2002). As a positive control IR3 a murine antibody (Ab-1; Calbiochem #GR11L) was used. Samples were allowed to incubate on ice for 1 hour and 15 minutes then were washed with 2 ml FACS buffer and centrifuged at 1200 rpm for 5 minutes at 4° C. The supernatant was aspirated and 100 μl of the secondary detection antibody was added to each corresponding tube in FACS buffer. Samples were then incubated for 30 minutes on ice, in the dark. Cells were washed as described above, then, re-suspended in […] FACS buffer per tube/sample.
Cells were stained for live cell determination with Propidium Iodide staining solution (PI for dead cell exclusion; BD Pharmingen catalog# 51-66211E or 556463; use at 1:500 final in FACS buffer). […]
Once samples have been run and geometric means determined, antibody concentration (X axis) vs. geometric mean (Y axis) was graphed to the log 10, using Graphpad Prism (Prism Graph) graphing program. […]
The binding activity of human antibodies to wild type IGF-1R expressed on tumor cells was determined by flow cytometry. […]

NCI-H23 = experiment: IGF driven tumor cell growth, CELL TITER-GLO, H-23; type: cell-based, human; settings: for Proliferation of Tumor Cells H-23: lung cancer cells
Experimental: (§1) NCI-H23, Calu-6, Colo-205, Panc-1, BxPC-3 (ATCC) tumor lines were purchased from ATCC. Cell lines were grown in complete growth medium containing RPMI-1640 (ATCC), 10% fetal bovine serum (Irvine Scientific Inc.) and 50 μg/ml of Gentamycin (Gibco, Invitrogen). Trypsin-EDTA solution (Sigma) was used for removal of adherent cells from culture vessels. Phosphate buffered saline, pH 7.2, was from MediaTech Inc The 96-well clear bottom plates for luminescent assay was purchased from Wallac Inc.
(§2) Cells grown to 80% monolayers were, trypsinized, washed, resuspended and plated into 96-well plates in 200 μl of 2% growth medium at 8×10^3 cells/well for NCI-H23 and Colo-205 cells; and 5×10^3 cells/well for Calu-6, Panc-1 and BxPC-3 cells. After 24 hours, the culture medium was replaced with 100 μl of serum free medium (SFM), and 50 μl of serially diluted antibodies at 4× concentration was added. […] All treatments were done in triplicates. Cell growth was measured using the CELL TITER-GLO™ Luminescent Cell Viability Assay (Promega, Madison, Wis.). The 1:1 mixture of reagent and SFM was added at 200 μl/well. Luminescence was detected on Wallac (Boston, Mass.) plate reader.
(§3) The ability of the selected murine antibodies to inhibit IGF/IGF-1R dependent in vitro growth of several human tumor lines (Lung, H-23, Calu-6; Pancreas, BxPc-3, Panc-1, MiaPaCa and Colon Colo205) was measured by a proliferation assay described in Example 13.
A commercially available anti-IGF-1R antibody (IR3) was used as a positive control. The mouse IgG (anti-IDectin, IgG1) and human gamma 4 version of IDEC-152 antibody of irrelevant specificity were used as isotype matched controls for the experiments. […]

Colo-205 = experiment: IGF driven tumor cell growth, CELL TITER-GLO, Colo-205; type: cell-based, human; settings: colon cancer cell
Experimental: as §1, §2, §3

Panc-1 = experiment: IGF driven tumor cell growth, CELL TITER-GLO, Panc-1; type: cell-based, human; settings: pancreatic cancer cell
Experimental: as §1, §2, §3

Calu-6 = experiment: IGF driven tumor cell growth, CELL TITER-GLO, Calu-6; type: cell-based, human; settings: lung cancer cells
Experimental: as §1, §2, §3

[2] = murine monoclonal antibodies, read-out: Binding (EC50nM) Tumor MCF-7

Row | Molecule | Proliferation of Tumor Cells MCF-7* (Ki67 Inhibit.) (MCF-7) | EC50 [1, 2] | inhibition of IGF-1 and IGF-2 driven cell proliferation in H-23 (NCI-H23; NCI-H23 lung tumor cell line) | Proliferation of Tumor Cells H-23 (NCI-H23) | Proliferation of Tumor Cells Colo-205 (Colo-205) | Proliferation of Tumor Cells Panc-1 (Panc-1) | Proliferation of Tumor Cells Calu-6 (Calu-6) | EC50 ([1]; purified Fabs, read-out: FACS Binding MCF-7 EC50nM)
1 | 20C8.3B8: murine anti-human IGF-1R monoclonal antibody from hybridoma; VH SEQ ID NO:43, VL SEQ ID NO:103 (antibody, V domains shown, Antibody variable heavy chain sequence; Antibody variable light chain sequence) VH: DVQLQESGPDLVKPSQSLSLTCTVTGYSITSGYSWHWIRQFPGNKLEWMGYIHYSGGTNYNPSLKSRISITRDTSKNQFFLQLNSVTTEDTATYYCARSGYGYRSAYYFDYWGQGTTVTVSS VL: DIVLTQSPASLAVSLGQRATISCRASKSVSTSAYSYMHWYQQKPGQPPKLLIYLASNLESGVPARFSGSGSGTDFTLNIHPVEEEDAATYYCQHSRELPYTFGGGTKLEIK | +++ (>50%@0.1 μg/ml) | 1.23 nM | showed inhibition | +++ (>30%@0.1 μg/ml) | +++ (>30%@0.1 μg/ml) | +++ (>30%@0.1 μg/ml) | +++ (>30%@0.1 μg/ml) | 
2 | 20D8.24B11: murine anti-human IGF-1R monoclonal antibody from hybridoma; VH SEQ ID NO:53, VL SEQ ID NO:103 (antibody, V domains shown, Antibody variable heavy chain sequence; Antibody variable light chain sequence) VH: DVQLQESGPDLVKPSQSLSLTCTVTGYSITSGYSWHWIRQFPGNKLEWMGYIHYSGGTNYNPSLKSRISITRDTSKNQFFLQLNSVTTEDTATYYCARSGYGYRSAYYFDYWGQGTTLTVSS VL: DIVLTQSPASLAVSLGQRATISCRASKSVSTSAYSYMHWYQQKPGQPPKLLIYLASNLESGVPARFSGSGSGTDFTLNIHPVEEEDAATYYCQHSRELPYTFGGGTKLEIK | ++ (>50%@1 μg/ml) | 1.3 nM |  | ++++ (>30%@0.01 μg/ml) | +++ (>30%@0.1 μg/ml) | +++ (>30%@0.1 μg/ml) | +++ (>30%@0.1 μg/ml) | 
3 | Fab M12-E01: human anti-human IGF-1R Fab from phage display library; VH SEQ ID NO:4, VL SEQ ID NO:68 (antibody, V domains shown, Antibody variable heavy chain sequence; Antibody variable light chain sequence) VH: EVQLLESGGGLVQPGGSLRLSCAASGFTFSPYSMLWVRQAPGKGLEWVSSIGSSGGSTRYADSVKGRFTISRDNSKNTLYLQMNSLRAEDTAMYYCARVRGILHYDILIGRNLYYYYMDVWGKGTTVTVSS VL: QYELTQPPSVSEAPRQRVTISCSGSSSNIGNNAINWYQQLPGKPPKLLIYYDDLLPSGVSDRFSGSKSGTSGSLAISGLQSEDEADYYCAAWDDNLNGVIFGGGTKLTVL |  |  |  |  |  |  |  | 7.4 nM
